Assay: soluble on expression in E. coli; label from the status in PepcDB or PDB records

Sequence | soluble on expression in E. coli
MEESDQTVLLPNVENEIGSFYHDMPDEKLLRHIKAIFDEASLRPSLTKNVPSTSSQVTEELNKVEIRDPKHEMQDEQYLSIFENPSGVQYNQADGSFSWNNRFHSDNSVQYINVLNNYGCEGADTLLNQSDSSDETDESIEERRTPRGNRQSRSNLTSKPSAKYWTKRGGDPIVNCSCSICGSKFSTIRCLLDHRHQEHSLKDMMMCGLCGKEFSKRTHIYLHLSQEYKVYHCDGCNTSFASKWHLEKHRCKENETIDDKKRRRTGRVNAEEIKVIKEEIQDEEFGGVVLSNENHEKSKEDRFQFACVLCGKKYQHYHWLLKHRTKCLETTDEIQEFKCNVCYRRYNSSFWFERHMEKCNSSTALPPALLDQTISCPNCHKKYQNEYWFDYHKKHCPDITPALSDVHLDVNSLRDRRPREGEISVVPDVNLFGIEPEREDDNDDDEDADATISSSSSSTGNLVNIPCSICGKFCVGVASLLHHRKQIHGLTAMLTCGVCTKKFNTLSSIRRHMSMEYSIFRCQQCGRNCIDRTTLDRHECFKPYKIRDKRLFNIQNISVLKCPDCRATFANLNVLSEHRKTCQYGNVFDNIQQPGSSSLRQHHRSDTNGAALQRKITSRVRLDSNTPEKWTCRDCHASFHNLQALCSHRHESHGKEMFQCNNCSETLPNYRALHDHNMMHCRNNRSTNETTTRRYSEEDINYDYMDNVQIFVVEESEIFIPIQPHFSRK | not soluble
MATLLEQLSTMTVVVADTGDLDAIRKFTPRDATTNPSLILAAAQIPAYQSLIDEALHSSRQLLGNSAAVEEVVHEALDEICVIFGKEILKIVPGRVSTEVDARLSFNTEATIAKAHKLIGLYNDAGITNDRVLIKIASTWEGIKAAEVLEKDGIHCNLTLLFGFSQAVACAEAGVTLISPFVGRILDWYKASTGRDSYAGPEDPGVISVTKIFNYFKTYDYKTEIMGASFRNLDEIIELAGCDLLTISPKLLDQLGSTEAPLKRKLDAVNPVAAESQIHVDKESFESMMRADRMAFEKLDEGIRGFSKAIETLEAQLAHRLAVLEGGAAFCHVVQEIFMLNDLDGDGCITREEWLGSDAVFDALDHDHDGRLLQEDVRSGLGAALALTTA | not soluble
MSLEDSTATFETRNMYFNRDFRDGTSAQQSKRDEWAQGFILNFESGYTDGTVGFGLDALGMLGIKLDSSPDRTDSGLLPTHDDGKAADEYSKLGLTGKVKISQTELKIGTLIPELPTLQPNDGRILPQTFEGGLLTSKEIKGLTFTGGRIDKAKDRNDTNWEDLALNNKNGRFGGTFSADNLALGGLDYQFTDRITGSYHFAQLDDIYRQHFIGMVATQPWGPGTLGADLRLAMSDDAGAAKAGNIDNTTVNGMLSYALGGHKVSAAWQQLSGESAFPYVDGADPYLVNFVQINDFAGADERSWQARYDYNFAALGVPGLTFMTRYISGDNVSRAAGGEGKEWERNTELKYVVQSGPLKNVAVRLRNATFRSNFARDADEVRLLVSYSVALWEGHHHHHH | soluble
MADTTILDTTCSSTLAANVEFSHATDSAIGISLKNATITEAEGVPNLKETGYDCVRYMGTCNGGQIYLGRERKKLKDYVAIKKFAIDDVDDYAAIAKESSNLRLMHHPNIIELCECFVYERSIYQITPAMNLGSLFDIVFEYMKWGINEKSAAAITRQLLDALSYLHQRRYIHRDLKPKHILIDSSGNVKLSGFRFMIELNHHLDCVFEFDAHLQNQLYYLAPEVLAQNIHGYTSKSDIYMLGISICEAINGVMPFGELEPLEMLHRKLNGQVPRPVDMISLKDDQKMGLDISHRPQEHLTRRFSKEMHEFIANCLDYDPQQRGSASDLKSSAWLGSKIHKNLGPVDVRQELNLDYAHFDLSLWEQEPLIPMEPDQKYEIVFDYSPIS | not soluble
MKIFVLSIRPEEKAQRTGGACFDILNVPVTRLEPIPVDYTDLIRSGVDCVAFTSSYGVRLFFKNAPVKNFRYFGIGKSTCEEVRKYGYDCEYPEKMDSEGLADMIISHCSGRKVALIRSANANEIVNEKIMGHVDFIDLRNYRAVNTNVDLTPYMAKEECMGIIVTSSMEAKIAMPAIKATGKPVYSIGSVTTKTLEEAGIHPAISGNSDFVDLVEKIKKYLCLV | not soluble
MAVELPKAAIERIFRQGIGERRLSQDAKDTIYDFVPTMAEYVANAAKSVLDASGKKTLMEEHLKALADVLMVEGVEDYDGELFGRATVRRILKRAGIERASSDAVDLYNKLICRATEELGEKAAEYADEDGRKTVQGEDVEKAITYSMPKGGEL | soluble
MNYELMEPAKQARFCVIWLHGLGADGHDFVDIVNYFDVSLDEIRFIFPHADIIPVTINMGMQMRAWYDIKSLDANSLNRVVDVEGINSSIAKVNKLIDSQVNQGIASENIILAGFSQGGIIATYTAITSQRKLGGIMALSTYLPAWDNFKGKITSINKGLPILVCHGTDDQVLPEVLGHDLSDKLKVSGFANEYKHYVGMQHSVCMEEIKDISNFIAKTFKI | not soluble
MGSDKIHHHHHHMAIIETRGIWLTTTDSKVLRSKQRIAEAMDLLAETGFNVVFPVVWNKAVTLYPSQTMQETFGVEIDPMSVGRDPLEEVVVEARRVGLKVIPWFEYGFASSYNLNGGVLLQKKPEWAARDFNGNLLNKNGFEWLNALDSQVQEFFLNLVLEVVKNYDVDGVQGDDRLPAFPCEGGYDEGTVSRYRQEYDRNPPQNPKDRQWLQWRADILTDFLARLYGEVKAVNPNLLVAIAPNIHDWAFQEYLQDSPTWLKRGIVDMIQPQIYRRDFGSYCAIADKLVSQQFTDATLPRLAPGILMKLGSYCISPEYLVQAIEYNRQLGIQGEVFFFYEGLRENNNTLAKVLRNGPYAKSASFPTLSDLSVSGVSNKKTSSTWQRLLKKIF | not soluble
MIWIVGSGTCRGQTTERAKEIIERAEVIYGSRRALELAGVVDDSRARILRSFKGDEIRRIMEEGREREVAVISTGDPMVAGLGRVLREIAEDVEIKIEPAISSVQVALARLKVDLSEVAVVDCHAKDFDAELTELLKYRHLLILADSHFPLERLGKRRVVLLENLCMEGERIREGNADSIELESDYTIIFVEREVME | soluble
SNAMDFHIRKATNSDAEAIQHVATTSWHHTYQDLIPSDVQDDFLKRFYNVETLHNRISATPFAVLEQADKVIGFANFIELEKGKSELAAFYLLPEVTQRGLGTELLEVGMTLFHVPLPMFVNVEKGNETAIHFYKAKGFVQVEEFTEDFYGYPLETIRFNLNH | soluble
MGSDKIHHHHHHMQIKLSTDGCTDFMFILENTVNHGIIMQPYHSYFVGPMDICSALITLSGTINTFGVRFRPCGLSRFMKISLSELTNIRLSVNDLNTIFSDSFAERLFEEQGIQCKINLIERYLKKHLYKSNHTMDTQISYAVNQINAHEGKISISHLMDEVNLCQRHFERKFKLHTGFTPQKYNSIVKFKNAIKILRNESFDNLLSVAVKAGYYDASHLSREVKKLSGSTPNFFLSLPPDNETTIIYTK | not soluble
MGSDKIHHHHHHMAKLYFNYSTMNAGKSTVLLQASHNYRERGMQTYLMTAAIDGRAGTGRIASRIGIGAEADIFTPRDDVFAMIRDRLGAGPVACVFVDEAQFLSPEQVWQLARVVDDLDVPVLAYGLRVDFQGKLFPGSATLLALADEMREVRTICKCGRKATMVIRQDASGRAITEGAQVQIGGNETYVSLCRKHWREATGDPGAKGH | not soluble
MAHHHHHHMNLNKKNEELEKVKIVLTQKIKNLESNLSPKESEIKVMREKIDEMAKSFENNHKKRVNLQIEINEYKMKIKFLHDDLLNYNKTIMNYEKILKNLQDHIKECYLHLHDKKIFNSSFLNLYNKFHKVNDVQNYDAKNVFSEYIRQKEYLENMIEVLKDKLHKETEAFRNEKIKMMNENSLLLKEINDLKMDLNFLKSECHEAQLQNRKMKFLKKRSESKERKKEKKEKKEKKEKKENKDNNEEKNIDIK | soluble
MTMLLSIIVPTFKPQKTYFEECLFSLFNQTMFHYLYEVIVVLNGDIDTQYTDMILDIFAYKPAGLYCRLIKTDQAGVSNARNLGIDAAKGQYIGFVDDDDIVSSDYLEELCKISSRNIVGVSNVHTFRKTIEEKEDNFFACRIIQQRECQYSLFRNRAILAFPVAKLIHRDIIGNRRFNPRFKNGEDALFMTEISDLIGGFRFTKEYTTYYVRERAGSASRRPLKRGQLCWDTFMLIKAYVSIYLSSPFSYNFLLFASRIPGSIKGAIKLSRNTAFFLEHHHHHH | not soluble
MAAFEYKALDAKGKQKKGTIEGDNARQVRQRLKEQGMIPVEVVEAKAKAAKSSGSVGFKRGIKTAELALITRQLSTLVQSGMPLEECLRAVSEQAEKPRIRTMIAAVRSKVTEGYPLADSLGDYPHVFDELFRSMVAAGEKSGHLDTVLERLAEYVENRQKMRSKLLQA | not soluble
GMVEVSQFKDAMAQLASAVHIVTTSGETGQHGFTASAVCSVTDSPPTLLVCINSNARAYEHFVKNRVLMVNTLTAEQSSLSNIFASPLSQEERFSNASWTTLTTGSPMLQDALINFDCEITEIKHVGTHDILICKIVDIHQSNAKNALVYRNRVYHSV | soluble
QEQLVESGGRLVTPGTALTLTCKVSGFSLSGFWLNWVRQAPGKGLEWVGAIYRGSGSEWYASWAKGRFTISDTSTTVTLKLTSPTTEDTATYFCAADTTDNGYFTIWGPGTLVTVSSASTKGPSVFPLAPSAKSTSGGTAALGCLVKDYFPEPVTVSWNSGALTSGVHTFPAVLQSSGLYSLSSVVTVPSSSLGTQTYICNVNHKPSNTKVDKKAEPKSCDKTRGHHHHHH | soluble
MSLKYKNLFFDLDDTIWAFSRNARDTFEEVYQKYSFDRYFDSFDHYYTLYQRRNTELWLEYGEGKVTKEELNRQRFFYPLQAVGVEDEALAERFSEDFFAIIPTKSGLMPHAKEVLEYLAPQYNLYILSNGFRELQSRKMRSAGVDRYFKKIILSEDLGVLKPRPEIFHFALSATQSELRESLMIGDSWEADITGAHGVGMHQAFYNVTERTVFPFQPTYHIHSLKELMNLLEGHHHHPPLIRIRAPSTSLRPHSSTTTTTTEIRLLTKPERKLSWLLPPLSNN | soluble
MSAPKRPKFSVGDIVVNTLYGTVGTITDIQQIDGTFLYEINHGHSLFAEQALILLSEFAGDLWIAEEIEIELPFFLGEIVRVRDYGGHLFKIVGVRTEIYRYYGEGWEETIYELKRLTDGWEIEVHLEDIIPLADGEETSVTLVQDIVIAAPVKASLLLPPADSGEKGPSVDELLDMYNDYKALYEWFGDEQYQRMMETVVKRLRTISDHQDRN | not soluble
MKITVPATSANIGPGFDSVGVAVSKYLTIEVLEPADVWFIEHDLGDIPSDENNLLISTALQVKSDLQPHKLVMASDIPLAR | not soluble

From the DeepSol protein solubility set
